Experimental data taken from the supplement of paper PMC11246515.
± gives the standard deviation of the averaged measurements.

Assay: total protein half-life in vivo (active degradation + dilution); higher = more stable protein
[1] = E. coli NCM3722 delta-clpP delta-lon delta-hslV, growth: N-lim chemostat, doubling time 6 h
[2] = E. coli NCM3722 delta-clpP, growth: N-lim chemostat, doubling time 6 h
[3] = E. coli NCM3722 delta-hslV, growth: N-lim chemostat, doubling time 6 h
[4] = E. coli NCM3722 delta-lon, growth: N-lim chemostat, doubling time 6 h
[5] = E. coli NCM3722 delta-smpB, growth: N-lim chemostat, doubling time 6 h
[6] = wild type E. coli NCM3722, growth: C-lim chemostat, doubling time 3 h
[7] = wild type E. coli NCM3722, growth: C-lim chemostat, doubling time 6 h
[8] = wild type E. coli NCM3722, growth: C-lim chemostat, doubling time 12 h
[9] = wild type E. coli NCM3722, growth: N-lim chemostat, doubling time 6 h
[10] = wild type E. coli NCM3722, growth: N-lim chemostat, doubling time 12 h
[11] = wild type E. coli NCM3722, growth: P-lim chemostat, doubling time 6 h
[12] = wild type E. coli NCM3722, growth: P-lim chemostat, doubling time 12 h

Sequence | total protein half-life in vivo [1] | total protein half-life in vivo [2] | total protein half-life in vivo [3] | total protein half-life in vivo [4] | total protein half-life in vivo [5] | total protein half-life in vivo [6] | total protein half-life in vivo [7] | total protein half-life in vivo [8] | total protein half-life in vivo [9] | total protein half-life in vivo [10] | total protein half-life in vivo [11] | total protein half-life in vivo [12]
MSAVLTAEQALKLVGEMFVYHMPFNRALGMELERYEKEFAQLAFKNQPMMVGNWAQSILHGGVIASALDVAAGLVCVGSTLTRHETISEDELRQRLSRMGTIDLRVDYLRPGRGERFTATSSLLRAGNKVAVARVELHNEEQLYIASATATYMVG [P0ADP2] | 5.02 ± 0.33 h | 2.3 ± 0.16 h | 2.36 ± 0.08 h | 3.45 ± 0.78 h | 2.22 ± 0.052 h | 2.82 ± 0.14 h | 5.73 ± 0.62 h | 7.1 ± 2.8 h | 2.54 ± 0.22 h | 4.13 ± 0.42 h | 5 ± 0.1 h | 12.5 ± 1 h
MARINRISITLCALLFTTLPLTPMAHASKQARESSATTHITKKADKKKSTATTKKTQKTAKKAASKSTTKSKTASSVKKSSITASKNAKTRSKHAVNKTASASFTEKCTKRKGYKSHCVKVKNAASGTLADAHKAKVQKATKVAMNKLMQQIGKPYRWGGSSPRTGFDCSGLVYYAYKDLVKIRIPRTANEMYHLRDAAPIERSELKNGDLVFFRTQGRGTADHVGVYVGNGKFIQSPRTGQEIQITSLSEDYWQRHYVGARRVMTPKTLR | > 8 h | – | 3.67 h | 2.15 h | – | 2.57 ± 0.19 h | 5.435 ± 0.027 h | 9.36 ± 4.5 h | 2.63 ± 0.55 h | 6.47 ± 1.8 h | 3.69 ± 0.066 h | 6.68 ± 0.86 h
MSVIETATVPLAQQQADALLNVKDLRVTFSTPDGDVTAVNDLNFSLRAGETLGIVGESGSGKSQTAFALMGLLAANGRIGGSATFNGREILNLPEHELNKLRAEQISMIFQDPMTSLNPYMRVGEQLMEVLMLHKNMSKAEAFEESVRMLDAVKMPEARKRMKMYPHEFSGGMRQRVMIAMALLCRPKLLIADEPTTALDVTVQAQIMTLLNELKREFNTAIIMITHDLVVVAGICDKVLVMYAGRTMEYGNARDVFYQPVHPYSIGLLNAVPRLDAEGETMLTIPGNPPNLLRLPKGCPFQPRCPHAMEICSSAPPLEEFTPGRLRACFKPVEELL | 5.379 ± 0.026 h | 5.7109 ± 0.0028 h | 5.53 ± 0.098 h | 4.81 ± 0.18 h | 5.34 ± 0.22 h | 2.84 ± 0.31 h | 5.49 ± 0.35 h | 11.4 ± 1.9 h | 5.29 ± 0.21 h | 11.4 ± 1.2 h | 5.715 ± 0.02 h | 11.6 ± 0.23 h
MDIVFIEQLSVITTIGVYDWEQTIEQKLVFDIEMAWDNRKAAKSDDVADCLSYADIAETVVSHVEGARFALVERVAEEVAELLLARFNSPWVRIKLSKPGAVARAANVGVIIERGNNLKENN [P0AC16] | 5.71 ± 0.35 h | 5.86 h | 5.4 ± 0.43 h | 5.47 ± 0.74 h | – | 3.26 ± 0.37 h | 6.02 ± 0.37 h | 11.8 ± 1.3 h | 5.39 ± 0.56 h | 10.7 ± 2.2 h | 6.4 ± 0.65 h | 12.39 ± 0.043 h
MDQFECINVADAHQKLQEKEAVLVDIRDPQSFAMGHAVQAFHLTNDTLGAFMRDNDFDTPVMVMCYHGNSSKGAAQYLLQQGYDVVYSIDGGFEAWQRQFPAEVAYGA [P0A6V5] | – | – | – | – | – | – | – | – | 1.91 h | – | – | –
MPAENIVEVHHLKKSVGQGEHELSILTGVELVVKRGETIALVGESGSGKSTLLAILAGLDDGSSGEVSLVGQPLHNMDEEARAKLRAKHVGFVFQSFMLIPTLNALENVELPALLRGESSAESRNGAKALLEQLGLGKRLDHLPAQLSGGEQQRVALARAFNGRPDVLFADEPTGNLDRQTGDKIADLLFSLNREHGTTLIMVTHDLQLAARCDRCLRLVNGQLQEEA [P0A9T8] | 6.26 h | 6.68 h | 5.9 h | – | 5.39 ± 0.17 h | 3.23 ± 0.07 h | 5.51 ± 0.64 h | 11.2 ± 1.8 h | 7.11 h | 11.4 ± 0.56 h | 5.46 ± 0.41 h | 11.6 h
MKTIFTVGAVVLATCLLSGCVNEQKVNQLASNVQTLNAKIARLEQDMKALRPQIYAAKSEANRANTRLDAQDYFDCLRCLRMYAE | 7.01 h | – | – | – | 5.17 h | – | – | 6.54 h | – | – | – | > 16 h
MFVEHNLIKNIKIFTLAFTLTVVLIQLSRFISPLAIIHSSYIFLAWMPLCVMLSILFIFGWRGVVPVLCGMFCTNLWNFHLSFLQTAVMLGSQTFVVLCACAILRWQLGTRWRYGLTSRYVWQRLFWLGLVTPIGIKCSMYLVGSFFDFPLKISTFFGDADAIFTVVDLLSLFTAVLIYNMLFYYLTRMIVSPHFAQILWRRDIAPSLGKEKRAFTLSWLAALSVLLLLLCTPYENDFIAGYLVPVFFIIFTLGVGKLRYPFLNLTWAVSTLCLLNYNQNFLQGVETEYSLAFILAVLISFSVCLLYMVRIYHRSEWLNRRWHLQALTDPLTLLPNFRALEQAPEQEAGKSFCCLRIDNLEFMSRHYGLMMRVHCIRSICRTLLPLMQENEKLYQLPGSELLLVLSGPETEGRLQHMVNILNSRQIHWNNTGLDMGYGAAWGRFDGNQETLQPLLGQLSWLAEQSCAHHHVLALDSREEMVSGQTTKQVLLLNTIRTALDQGDLLLYAQPIRNKEGEGYDEILARLKYDGGIMTPDKFLPLIAQFNLSARFDLQVLESLLKWLATHPCDKKGPRFSVNLMPLTLLQKNIAGRIIRLFKRYHISPQAVILEITEEQAFSNAESSMYNIEQLHKFGFRIAIDDFGTGYANYERLKRLQADIIKIDGVFVKDIVTNTLDAMIVRSITDLAKAKSLSVVAEFVETQQQQALLHKLGVQYLQGYLIGRPQPLAD | – | 6.53 ± 0.1 h | 5.86 ± 0.58 h | 6.27 ± 0.65 h | 5.72 ± 0.47 h | – | 5.29 ± 1.1 h | 13.6 ± 0.27 h | 6.08 ± 0.22 h | 12.2 ± 1.5 h | 6.1 ± 0.44 h | 13.8 ± 0.87 h
